How the values were obtained:
[1] = target: T1, hAng2_H6F, Angiopoietin-2 (Homo sapiens) aa 19-496 (Homo sapiens, UniProt O15123 19-496); test: BLI Octet RED 384; antibody on ProA sensor, antigen 30 ug/ml (510.2 nM); response at end of association
T1 construct: also called hAng-H6F; not shown: His and FLAG tags implied by the name 'H6F'
T1 sequence: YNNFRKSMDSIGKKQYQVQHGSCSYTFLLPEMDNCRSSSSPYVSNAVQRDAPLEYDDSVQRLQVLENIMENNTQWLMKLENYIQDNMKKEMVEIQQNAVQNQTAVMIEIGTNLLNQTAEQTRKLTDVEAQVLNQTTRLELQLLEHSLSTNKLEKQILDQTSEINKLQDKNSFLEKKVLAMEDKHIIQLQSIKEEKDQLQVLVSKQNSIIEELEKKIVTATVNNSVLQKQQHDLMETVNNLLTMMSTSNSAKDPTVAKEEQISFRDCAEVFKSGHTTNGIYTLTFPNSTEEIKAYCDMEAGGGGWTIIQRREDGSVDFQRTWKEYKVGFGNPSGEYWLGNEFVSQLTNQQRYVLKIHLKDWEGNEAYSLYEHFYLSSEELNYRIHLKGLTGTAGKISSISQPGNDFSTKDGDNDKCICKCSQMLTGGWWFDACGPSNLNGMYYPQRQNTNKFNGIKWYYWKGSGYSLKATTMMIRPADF
Description: (§1) Experimental study of nonspecific binding of bispecific chimeric antibodies to non-target antigens was performed on Forte Bio Octert RED 384. Protein A (ProA) biosensors (ForteBio) were immersed into a solution containing antibodies at a concentration of 10 μg/ml for 150 seconds to immobilize same. The baseline was recorded in a 1×KB solution for 30 seconds. The antibody-loaded sensors were then immersed into wells containing non-target antigens at a concentration of 30 μg/ml for 150 seconds. Complex dissociation was then recorded for 30 seconds.
(§2) The reference sensors went through all the steps as the sensors used to record analyte sensograms did, with the exception of the association step—at the association step, the sensors were immersed in a kinetic buffer solution without analyte (the reference sensor signals were measured in parallel with the recording of the main sensograms). The reference signal was subtracted from the signal received on sensors interacting with the analyte during the processing of sensograms.
(§3) Sensograms were processed using ForteBio Octet Data Analysisn 9.0 software. To report no non-specific interaction, the recorded signal level was checked at the end of the association step (the response parameter).

[2] = target: T2, hIL4R-His, Interleukin-4 receptor subunit alpha (Homo sapiens) aa 27-227 (Homo sapiens, UniProt P24394 27-227); test: BLI Octet RED 384; antibody on ProA sensor, antigen 30 ug/ml (1154 nM); response at end of association
T2 construct: range 27-227; not shown: His tag as the name implies
T2 sequence (looked up): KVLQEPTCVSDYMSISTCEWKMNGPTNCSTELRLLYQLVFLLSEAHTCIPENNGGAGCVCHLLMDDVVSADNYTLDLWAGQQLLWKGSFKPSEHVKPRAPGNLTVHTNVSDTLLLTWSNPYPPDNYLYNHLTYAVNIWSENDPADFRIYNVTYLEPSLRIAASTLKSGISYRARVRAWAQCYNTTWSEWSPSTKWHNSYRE
Description: as §1, §2, §3

[3] = target: T3, IL5R-His, Interleukin-5 receptor subunit alpha (Homo sapiens) aa 22-342 (Homo sapiens, UniProt Q01344 22-342); test: BLI Octet RED 384; antibody on ProA sensor, antigen 30 ug/ml
T3 construct: not shown: His tag as the name implies
T3 sequence (looked up): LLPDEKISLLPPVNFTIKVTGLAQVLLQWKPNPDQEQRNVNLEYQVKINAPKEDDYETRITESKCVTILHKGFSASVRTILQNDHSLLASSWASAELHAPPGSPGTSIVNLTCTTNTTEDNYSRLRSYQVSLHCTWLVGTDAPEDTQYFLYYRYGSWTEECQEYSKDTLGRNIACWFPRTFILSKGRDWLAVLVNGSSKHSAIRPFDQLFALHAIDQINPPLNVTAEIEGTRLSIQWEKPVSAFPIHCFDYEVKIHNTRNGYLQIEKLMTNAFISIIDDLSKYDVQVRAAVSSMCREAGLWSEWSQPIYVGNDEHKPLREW

[4] = target: T4, C-Avi-His-TEVs-HSA_hBCMA, Tumor necrosis factor receptor superfamily member 17 (Homo sapiens) aa 1-54 (Homo sapiens, UniProt Q02223 1-54); test: as above
T4 construct: range 1-54; not shown: Avi, His, TEV site and HSA parts as the name implies
T4 sequence (looked up): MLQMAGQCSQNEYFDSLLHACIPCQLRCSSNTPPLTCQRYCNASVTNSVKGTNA

[5] = target: T5, biotinylated peptide [NH2]…JQS[CH2CH2]biotin comprising a fragment of the human CD20 sequence (human, [NH2] at the N-terminus; [CH2CH2]biotin at the C-terminus; the letter J at position 20 is printed so and is not a standard residue code); test: BLI Octet RED 384; biotinylated peptide on SAX sensor, antibody in solution; 1:1 global fit
T5 construct: also called CD20 peptide
Description: In the case of the biotinylated CD20 peptide, the peptide at a concentration of 5 μg/ml was immobilized on the surface of SAX sensors (High Precision Streptavidin (SAX) biosensors, ForteBio) for 120 seconds. The baseline was recorded in a 1×KB solution for 120 seconds. The sensors containing the loaded peptide were immersed into wells containing the antibody solution (analyte) in 1×KB for 15 seconds. Measurements were carried out for solutions with analyte (antibodies in the case of CD20 peptide) at concentrations of 150 μg/ml, 75 μg/ml, 37.5 μg/ml. Complex dissociation was recorded in 1×KB for 120 seconds.
All measurements were carried out at 30° C., orbital mixing speed was 1,000 revolutions per minute.
To obtain numerical values of kinetic constants (kₒₙ is the on/association rate constant, kdis is the dissociation rate constant, KD is the equilibrium dissociation constant or affinity constant), the resulting sensograms were processed according to the 1:1 interaction model using Global Fit (selection of one set of kon, kdis, KD constants to analyze several sensograms of different concentrations) of the ForteBio Octet Data Analysis 9.0 software.

T5 sequence (peptide, as listed by the source): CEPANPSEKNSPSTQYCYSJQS

B1: 02-006, bivalent bispecific chimeric antibody that specifically binds to PD1 and CSF1R (bispecific antibody, human IgG1, kappa, L234A L235A)
heavy 1: QVQLVQSGGGLVQPGGSLRLSCAASGFTFSSYWMYWVRQVPGKGLEWVSAIDTGGGRTYYADSVKGRFAISRVNAKNTMYLQMNSLRAEDTAVYYCARDEGGGTGWGVLKDWPYGLDAWGQGTLVTVSSASTKGPSVFPLAPSSKSTSGGTAALGCLVKDYFPEPVTVSWNSGALTSGVHTFPAVLQSSGLYSLSSVVTVPSSSLGTQTYICNVNHKPSNTKVDKRVEPKSCDKTHTCPPCPAPEAAGGPSVFLFPPKPKDTLYITREPEVTCVVVDVSHEDPEVKFNWYVDGVEVHNAKTKPREEQYNSTYRVVSVLTVLHQDWLNGKEYKCKVSNKALPAPIEKTISKAKGQPREPQVCTLPPSRDELTKNQVSLSCAVKGFYPSDIAVEWESNGQPENNYKTTPPVLDSDGSFFLVSKLTVDKSRWQQGNVFSCSVMHEALHNHYTQKSLSLSPGK
light 1: QPVLTQPLSVSVALGQTARITCGGNNIGSKNVHWYQQKPGQAPVLVIYRDSNRPSGIPERFSGSNSGNTATLTISRAQAGDEADYYCQVWDSSTAVFGTGTKLTVLQRTVAAPSVFIFPPSDEQLKSGTASVVCLLNNFYPREAKVQWKVDNALQSGNSQESVTEQDSKDSTYSLSSTLTLSKADYEKHKVYACEVTHQGLSSPVTKSFNRGEC
heavy 2: not shown
light 2: QAGLTQPPSVSVAPGQTARITCGGNNIGSKSVHWYQQKPGQAPVLVVYGDSDRPSGIPERFSGSNSGNTATLTISRVEAGDEADYYCQVWDISSDHVVFGGGTQLTVLQRQVKPEAWLSSGPSPGPGRLQLVCHVSGFYPKPVWVMWMRGEQEQQGTQLGDILPNANWTWYLRATLDVADGEAAGLSCRVKHSSLEGQDIILYWRGSC
notes: Produced in CHO cells
For B1, the “Signal level (nm)” value [1] was -0.0239 nm, the “Signal level (nm)” value [2] was -0.0075 nm and the binding result [3] was “no binding (tested: 757.6 nM)”. B1: no binding (tested: 391.2 nM) [4].

B2: 02-008, bivalent bispecific chimeric antibody that specifically binds to CD20 and CSF1R (bispecific antibody, human IgG1, kappa, L234A L235A)
heavy 1: EVQLVESGGGLVQPGGSLRLSCAASGYTFTSYNMHWVRQAPGKGLEWVGAIYPGNGDTSYNQKFKGRFTISVDKSKNTLYLQMNSLRAEDTAVYYCARVVYYSNSYWYFDVWGQGTLVTVSSASTKGPSVFPLAPSSKSTSGGTAALGCLVKDYFPEPVTVSWNSGALTSGVHTFPAVLQSSGLYSLSSVVTVPSSSLGTQTYICNVNHKPSNTKVDKRVEPKSCDKTHTCPPCPAPEAAGGPSVFLFPPKPKDTLYITREPEVTCVVVDVSHEDPEVKFNWYVDGVEVHNAKTKPREEQYNSTYRVVSVLTVLHQDWLNGKEYKCKVSNKALPAPIEKTISKAKGQPREPQVCTLPPSRDELTKNQVSLSCAVKGFYPSDIAVEWESNGQPENNYKTTPPVLDSDGSFFLVSKLTVDKSRWQQGNVFSCSVMHEALHNHYTQKSLSLSPGK
light 1: DIQMTQSPSSLSASVGDRVTITCRASSSVSYMHWYQQKPGKAPKPLIYAPSNLASGVPSRFSGSGSGTDFTLTISSLQPEDFATYYCQQWSFNPPTFGQGTKVEIKRTVAAPSVFIFPPSDEQLKSGTASVVCLLNNFYPREAKVQWKVDNALQSGNSQESVTEQDSKDSTYSLSSTLTLSKADYEKHKVYACEVTHQGLSSPVTKSFNRGEC
heavy 2: not shown
light 2: B1 light 2
notes: Produced in CHO cells
B2 was tested, and the Kd [5] was 0.892 µM, the koff [5] was 0.329 s⁻¹ and the kon [5] was 369000 M⁻¹ s⁻¹. For the same binder, the “Signal level (nm)” value [1] was -0.0124 nm, the “Signal level (nm)” value [2] was -0.002 nm and the binding result [3] was “no binding (tested: 757.6 nM)”.

B3: 02-009, bivalent bispecific chimeric antibody that specifically binds to CD20 and CSF1R (bispecific antibody, human IgG1, kappa, L234A L235A)
heavy 1: QVQLVESGGGLVRPGGSLRLSCAASEFTFDDYAMSWVRQAPGKGLEWVSAISWNGGSTNYADSVKGRFTISRDNAKNSLYLQMNSLRAEDTALYYCASTVEVAHRRLYKYLEVWGQGTLVTVSSASTKGPSVFPLAPSSKSTSGGTAALGCLVKDYFPEPVTVSWNSGALTSGVHTFPAVLQSSGLYSLSSVVTVPSSSLGTQTYICNVNHKPSNTKVDKRVEPKSCDKTHTCPPCPAPEAAGGPSVFLFPPKPKDTLYITREPEVTCVVVDVSHEDPEVKFNWYVDGVEVHNAKTKPREEQYNSTYRVVSVLTVLHQDWLNGKEYKCKVSNKALPAPIEKTISKAKGQPREPQVCTLPPSRDELTKNQVSLSCAVKGFYPSDIAVEWESNGQPENNYKTTPPVLDSDGSFFLVSKLTVDKSRWQQGNVFSCSVMHEALHNHYTQKSLSLSPGK
light 1: QAGLTQPPSVSVAPGQTARITCGGNNIGSKSVHWYQQKPGQAPVLVVYGDSDRPSGIPERFSGSNSGNTATLTISRVEAGDEADYYCQVWDISSDHVVFGGGTQLTVLRTVAAPSVFIFPPSDEQLKSGTASVVCLLNNFYPREAKVQWKVDNALQSGNSQESVTEQDSKDSTYSLSSTLTLSKADYEKHKVYACEVTHQGLSSPVTKSFNRGEC
heavy 2: not shown
light 2: DIQMTQSPSSLSASVGDRVTITCRASSSVSYMHWYQQKPGKAPKPLIYAPSNLASGVPSRFSGSGSGTDFTLTISSLQPEDFATYYCQQWSFNPPTFGQGTKVEIKQRQVKPEAWLSSGPSPGPGRLQLVCHVSGFYPKPVWVMWMRGEQEQQGTQLGDILPNANWTWYLRATLDVADGEAAGLSCRVKHSSLEGQDIILYWRGSC
notes: Produced in CHO cells
B3 showed a Kd [5] of 0.82 µM, a koff [5] of 0.177 s⁻¹ and a kon [5] of 216000 M⁻¹ s⁻¹. For the same binder, the “Signal level (nm)” value [1] was -0.0114 nm and the “Signal level (nm)” value [2] was -0.0036 nm.

B4: 02-007, bivalent bispecific chimeric antibody that specifically binds to PD1 and CSF1R (bispecific antibody, human IgG1, kappa, L234A L235A)
heavy 1: B3 heavy 1
light 1: B3 light 1
heavy 2: not shown
light 2: QPVLTQPLSVSVALGQTARITCGGNNIGSKNVHWYQQKPGQAPVLVIYRDSNRPSGIPERFSGSNSGNTATLTISRAQAGDEADYYCQVWDSSTAVFGTGTKLTVLQQRQVKPEAWLSSGPSPGPGRLQLVCHVSGFYPKPVWVMWMRGEQEQQGTQLGDILPNANWTWYLRATLDVADGEAAGLSCRVKHSSLEGQDIILYWRGSC
notes: Produced in CHO cells
B4 was tested, and the “Signal level (nm)” value [1] was -0.0079 nm, the “Signal level (nm)” value [2] was 0.0051 nm and the binding result [3] was “no binding (tested: 757.6 nM)”. B4: no binding (tested: 391.2 nM) [4].

Source: patent US20250340613A1 (JOINT STOCK COMPANY BIOCAD, published 2025)
